Biological target: full-length human EphA2 protein on cells (human, UniProt P29317 24-976)
Assay: cell-based or functional assay

Chain of full-length human EphA2 protein on cells (P29317 24-976): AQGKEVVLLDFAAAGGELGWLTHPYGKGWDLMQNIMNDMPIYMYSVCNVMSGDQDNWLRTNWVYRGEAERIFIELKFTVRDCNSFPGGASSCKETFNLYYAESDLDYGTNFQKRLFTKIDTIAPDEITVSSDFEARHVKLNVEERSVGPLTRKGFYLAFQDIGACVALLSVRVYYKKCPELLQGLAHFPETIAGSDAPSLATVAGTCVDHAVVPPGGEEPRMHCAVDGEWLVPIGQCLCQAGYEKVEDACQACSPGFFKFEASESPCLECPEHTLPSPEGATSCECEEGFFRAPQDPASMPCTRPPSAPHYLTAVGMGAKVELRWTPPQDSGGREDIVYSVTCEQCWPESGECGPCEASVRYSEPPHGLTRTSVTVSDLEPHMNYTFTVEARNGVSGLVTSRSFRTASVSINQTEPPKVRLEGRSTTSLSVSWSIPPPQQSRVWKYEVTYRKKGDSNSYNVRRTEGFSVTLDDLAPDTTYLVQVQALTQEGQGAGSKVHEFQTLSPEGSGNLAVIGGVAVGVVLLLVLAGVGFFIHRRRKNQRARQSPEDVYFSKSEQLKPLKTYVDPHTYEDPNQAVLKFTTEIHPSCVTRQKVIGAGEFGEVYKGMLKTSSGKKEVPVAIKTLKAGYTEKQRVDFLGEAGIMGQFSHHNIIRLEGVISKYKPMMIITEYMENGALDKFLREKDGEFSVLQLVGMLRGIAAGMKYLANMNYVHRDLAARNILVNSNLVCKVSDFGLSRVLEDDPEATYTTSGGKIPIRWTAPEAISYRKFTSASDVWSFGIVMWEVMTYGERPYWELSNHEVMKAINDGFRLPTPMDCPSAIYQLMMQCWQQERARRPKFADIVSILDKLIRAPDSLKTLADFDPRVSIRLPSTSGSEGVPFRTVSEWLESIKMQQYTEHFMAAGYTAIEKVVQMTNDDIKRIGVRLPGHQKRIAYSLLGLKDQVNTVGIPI

B1: anti-EphA2 scFv antibody D2, monomeric scFv-6xHis (scFv)
scFv: EIVLTQSPGTLSLSPGERATLSCRASQSVSSSNLAWYQQKPGQAPRLLIYGASSRATGVPDRFSGSGSGTDFTLTISRLEPEDFAVYYCQQSSSYPWTFGQGTKVEIKRTGGGGSGAGGSGGGGTGGGGSEVQLLESGGGLVQPGGSLRLSCAASGFTFSRYWMHWVRQAPGKGLEWVSSISPYDGETNYADSVKGRFTISRDNSKNTLYLQMNSLRAEDTAVYYCARISEWYNWAVDVFDYWGQGTLVTVSSHHHHHH
decrease in cell number after 72 hours in culture relative to vehicle control treatment, 0.5 ug, EphA2-high AML cells: 52.6%
decrease in cell number after 72 hours in culture relative to vehicle control treatment, 1.0 ug, EphA2-high AML cells: 99.3%
